Measured values taken from the RNAGym collection of RNA variant scans (doi:10.1073/pnas.2313332121).

B1: TPR t1 (parent)
chain: GACCAAUCUGCCCUCAGAGCUCGAGAACAUCUUCGGAUGCAGAGGAGGCAGGCUUCGGUGGCGCGAUAGCGCCAACGUCCUCAACCUCCAAUGCAUCCCACCACAUGAUGAUGCCUGAAGAGCCUUGGUUUUUUG

Variants of: B1
Assay: polymerase ribozyme fitness, log enrichment relative to wild type (log ratio); higher = more active; in vitro selection for triplet polymerase activity
How it was run: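 Fitness is a logarithmic measure of how a genotype enriched relative to the wild type, with replicate averages weighted by inverse variance. The logarithm uses base 2, and enrichment came from Illumina sequencing of input and output libraries. Those libraries were PCR-built, transcribed mutants of each subunit of a heterodimeric triplet polymerase ribozyme, passed through one triplicate in vitro selection round that included frozen incubation at −7 °C, gel excision of extended constructs and streptavidin-bead capture. Genotypes were kept only if they had ≥10 input reads and ≥1 read per output.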

Variant	polymerase ribozyme fitness (log ratio)
GACCAAUCUGCCCUCAGAGCUCGAGAUCAUCUUCGGAUGCAGAGGAGGCAGGCUUCGGUGGCGCGAUAGCGCCAACGUCCUCAACCUCCAAUGCAUUCCACCACAUGAUGAUGCCUGAAGAGCCUUGGUUUUUUG [A27U C97U]	-3.07
GACCAAUCUGCCCUCAGAGCUCGAGAUCAUCUUCGGAUGCAGAGGAGGCAGGCUUCGGUGGCGCGAUAGAGCCAACGUCCUCAACCUCCAAUGCAUCCCACCACAUGAUGAUGCCUGAAGAGCCUUGGUUUUUUG [A27U C70A]	-4.74
GACCAAUCUGCCCUCAGAGCUCGAGAUCAUCUUCGGAUGCAGAGGAGGCAGGCUUCGGUGGCGCGAUAGGGCCAACGUCCUCAACCUCCAAUGCAUCCCACCACAUGAUGAUGCCUGAAGAGCCUUGGUUUUUUG [A27U C70G]	-6.31
GACCAAUCUGCCCUCAGAGCUCGAGAUCAUCUUCGGAUGCAGAGGAGGCAGGCUUCGGUGGCGCGAUAGUGCCAACGUCCUCAACCUCCAAUGCAUCCCACCACAUGAUGAUGCCUGAAGAGCCUUGGUUUUUUG [A27U C70U]	-3.44
GACCAAUCUGCCCUCAGAGCUCGAGAUCAUCUUCGGAUGCAGAGGAUGCAGGCUUCGGUGGCGCGAUAGCGCCAACGUCCUCAACUUCCAAUGCAUCCCACCACAUGAUCAUGCCUGAAGAGCCUUGGUUUUUUG [A27U G47U C86U G110C]	-6.45
GACCAAUCUGCCCUCAGAGCUCGAGAUCAUCUUCGGAUGCAGAGGAGGCAGGCUUCGGUGGCGCGAUAGCGCCAAAGUCCUCAACCUCCAAUGCAUCCCACCACAUGAUGAUACCUGAUGAGCCUUGGUUUUUUG [A27U C76A G113A A119U]	-6.73
GACCAAUCUGCCCUCAGAGCUCGAGAUCAUCUUCGGAUGCAGAGGAAGCAGGCUUCGGAGGCGCGAUAGCGCCAACGUCCUCAACCUCCAAUGCAUCCCACCACAGGAUGAUGCCUGAAGAGCCUUGGUUUUGUG [A27U G47A U59A U106G U133G]	-4.03
GACCAAUCUGCCCUCAGAGCUCGAGAUCAUCUUCGCAUGCAGACGAGGCAGGCUUCGGUGGCGCGAUAGCGCCAACGUCCUCAACCUCCAAUGCAUCCCACCACAUGAUGAUGCCUGAAGAACCUGGGUUUUUUG [A27U G36C G44C G122A U126G]	-5.95
GACCAAUCUGCCCUCAGAGCUCGAGAUCAUCUUCGGAUGCAGAGGAGGCAGGCUUCGGUGGCGCGAUAGCGCUAACGUCCUCAACCUCCAAUGCAUCCCACCACAUGAUGAUGCCUGAAGAGCCUUGGUUGUUUG [A27U C73U U131G]	-1.71
GACCAAUCUGCCCUCAGAGCUCGAGAUCAUCUUCGUAUGCAGAGGAGGCAGGCUUCGGUUGCGCGAUAGCGCCAACGUCCUCAACCUCCAAUGCAUCCCACCACAUGAUGAUGCCUGAAGAGCCUUGGUUUUUUG [A27U G36U G60U]	-4.13
GACCAAUCUGCCCUCAGAGCUCGAGAUCAUCUUCGGAUGCAGAGGAGGCAGGCUUCGGUGGCGCGAUAGCGCCAAUCUCCUCAACCUCCAAUGCAUCCCACCACAUGAUGAUGCCUGAAGAGCCUUGGUUUUUUG [A27U C76U G77C]	-3.99
GACCAAUCUGCCCUCAGAGCUCGAGAUCAUCUUCGGAUGCAGAGGAAGUAGGCUUCGGUGGCGCGAUAGCGCCAACGUCCUCAACCUCCAAUGCAACCCACCACAUGAUGAUGCCUGAUGAGCCUUGGUUUUUUG [A27U G47A C49U U96A A119U]	-5.56
GACCAAUCUGCCCUCAGAGCUCGAGAUCAUCUUCGGAUGCAGAGGACGCAGGCUUCGGUGGCGCGAUAGCGCCAACGUCCUCAACCUCCAAUGCAUCCCACCACAUGAUGAUGCCUGAAGAGCCUUGGUUUUUUG [A27U G47C]	-4.91
GACCAAUCUGCCCUCAGAGCUCGAGAUCAUCUUCGGAUGCAGAGGAAGCAGGCUUCGGUGGCGCGAUAGCGCCAACGUCCUCAACCUCCAAUGCAUCCCACCACAUGAUGAUGCCUGAAGAGCCUUGGUUUUUUG [A27U G47A]	-4.02
GACCAAUCUGCCCUCAGAGCUCGAGAUCAUCUUCGGAUGCAGAGGAGGCAGGCUUCGGUGGCGCGAUAGCGCCAACGUCCUCAACCUCCAAUGCAUCCCACCAAAUGAUGAUGCCUGAAGAGCCUUGGUUUUUUG [A27U C104A]	-4.18
GACCAAUCUGCCCUCAGAGCUCGAGAUCAUCUUCGGAUGCAGAGGAGCCAGGCUUCGGUGGCGCGAUAGCGCCAACGUCCUCAACCUCCAAUGCAUCCCACCACAUGAUGAUGCCUGAAGAGCGUCGAUUUUUUG [A27U G48C C124G U126C G128A]	-4.06
GACCAAUCUGCCCUCAGAGCUCGAGAUCAUCUUCGGAUGCAGAGGAGGCAGGCUUCGGUGGCGCGAUAGCGACAACGUCCUCAACCUCCAAUGCAUCCCACCACAUGAUGAUGCCUGAAGAGCCUUGGUUUUUUG [A27U C72A]	-2.61
GACCAAUCUGCCCUCAGAGCUCGAGAUCAUCUUCGGAUGCAGAGGAGGCAGGCUUCGGUGGCGCGAUAGCGCCAACGUCCUCAACCUCCAAUGCAUCCCACCACAUGAUGAUGCCUGAAGAGCAUUGGUUUUUUG [A27U C124A]	-0.764
GACCAAUCUGCCCUCAGAGCUCGAGAUCAUCUUCGGAUGCAGAGGAGGCAGGCUUCGGUGGCGCGAUAGCGUCAACGUCCUCUACCUCCAAUGCAUCCCACCACAUGAUGAUGCCUGAAGAGCCUUGGUUUUUUG [A27U C72U A83U]	-3.67
GACCAAUCUGCCCUCAGAGCUCGAGAUCAUCUUCGAAUGCCGAGGAGGCAGGCUUAGGUGACGCGAUAGCGCCAACGUCCUCAACCUCCAAUGCAUCCCACCACAUGAUGAUGCCUGAAAAGCCUUGGUUUUUUG [A27U G36A A41C C56A G61A G120A]	-5.6
GACCAAUCUGCCCUCAGAGCUCGAGAUCAUCUUCGGAUGCAGAGGAGGCAGGCUUCGGUGGCGCGAUAGCGCCAACGUCCUUAACCUCCAAUGCAUCCCACCACAUGAUGAUGCCUGAAGAGCCUUGGUUUUUUG [A27U C82U]	-2.99

Variant	polymerase ribozyme fitness (log ratio)
GACCAAUCUGCCCUCAGAGCUCGAGAUCAUCUUCGGAUGCAGAGGAGGCAGGCUUCGGUGGCGCGAUAGCGCCAAAGUACUCAACCUCCAAUGCAUCCCACCACAUGAUGAUGCCUGAAGAGCCUUGGUUUUUUG [A27U C76A C79A]	-4.71
GACCAAUCUGCCCUCAGAGCUCGAGAUCAUCUUCGGAUGCAGAGGAGGCAGGCUUCGGUGGCGCGAUAGCGACAACGUCCUCAACCUCCAAUGAAUCCCACCACAUGAUGAUGCCUGAAGAGCCUUGGUUUUUUG [A27U C72A C94A]	-4.07
GACCAAUCUGCCCUCAGAGCUCGAGAUCAUCUUCGGAUGCAGAGGAGGCAGGCUUCGGUGGCGUGAUAGCGCCAACGCCCUCAACCUCCAAUGCAUCCCACCACAUGAUGAUGCCUGAAGAGCCUUGGUUUUUUG [A27U C64U U78C]	-3.83
GACCAAUCUGCCCUCAGAGCUCGAGAUCAUCUUCGGAUGCAGAGGAGGCAGGCUUCGGUGGCGCGAUAGCGCCAACGUCCUCAACCUCUAAUGCAUCCCACCACAUGAUGAUGCCUGAAGAGCAUUGGUUUUUUG [A27U C89U C124A]	-1.39
GACCAAUCUGCCCUCAGAGCUCGAGAUCAUCUUCGGAUGCAGAGGAGGCAGGCUUCGGUGGCGCGAUAGCGCCAACGUCCUCAACCUCCAAUGCAUCCCACCACAUGAUGAUGUCUGAAGAGCCUUGGUUUUUUG [A27U C114U]	-4.39
GACCAAUCUGCCCUCAGAGCUCGAGAUCAUCUUCGGAUGCAGAGGAGCCAGGCUUCGGUGGCGCGAUAGCGCCAACGUCCUCAACCUCCAAUGCAUCCCACCACAUGAUGAUGCCUGAAGAGCCUUGGUUUUUUG [A27U G48C]	-3.79
GACCAAUCUGCCCUCAGAGCUCGAGAUCAUCUUCAGAUGCAGAGGAGGUAGGCUUCGGUGGCGCGAUAGCGCCAACGUCCUCAACCUACGAUGCAUCACACCACAUGAAGAUGCCUGAAGAGCCUUGGUUUUUUG [A27U G35A C49U C88A A90G C98A U109A]	-4.79
GACCAAUCUGCCCUCAGAGCUCGAGAUCAUCUUCGGAUGCAGAGGAGGCAGGCUUCGGUGGCGUGAUAGCGCCAACGUCCUCAACCUCCAAUGCAUCCCACCACAUGAUGAUGCCUGAAGAGCCUUGGUUUUUUG [A27U C64U]	-2.76
GACCAAUCUGCCCUCAGAGCUCGAGAUCAUCUUCGGAUGCAGAGGAGGCAGGCUUCGGUGGCGCGAUAGCGCCAACGUGCUCAACCUCCAAUGCAUCCCACCACAUGAUGAUGCCUGAAGAGCCUUGGUUUUUUG [A27U C79G]	-4.46
GACCAAUCUGCCCUCAGAGCUCGAGAUCAUCUUCGGAUGCAGAGGAGGCAGGCUUCGGUGGCGCGAUAGCGCCAACGUACUCAACCUCCAAUGCAUCCCACCACAUGAUGAUGCCUGAAGAGCCUUGGUUUUUUG [A27U C79A]	-3.85
GACCAAUCUGCCCUCAGAGCUCGAGAUCAUCUUCGGAUGCAGAGGAGGCAUGCUUCGGUGGAGCGAUAGUGCCAACGUCCUCAACCUCCAAUGCAUCCCACCACAUGAUGAUGCGUGAAGAGCCUUGGUUUUUUG [A27U G51U C62A C70U C115G]	-6.61
GACCAAUCUGCCCUCAGAGCUCGAGAUCAUCUUCGGAUGCAGAGGAGGCAGGCUUCGGUGGCGCGAUAGCGCCAACGUCCUCAACCUCCAAUGCAUCCCACCACAUGAUGAUGCCUGAAGAGACUUGGUUUUUUG [A27U C123A]	-1.74
GACCAAUCUGCCCUCAGAGCUCGAGAUCAUCUUCGGAUGCAGAGGAGGCAGGCUUCGGUGGCGCGAUAGCGCCAACGUCCUGAACCUCCAAUGCAUCCCACAACAUGAUGAUGCCUGAAGAGACUUGGUUUUUUG [A27U C82G C102A C123A]	-4.66
GACCAAUCUGCCCUCAGAGCUCGAGAUCAUCUUCGGAUGCAGAGGAGGCAGGCUUCGGUGGCGCGAUAGCGACAACGUCCUAAACCUCCAAUGCAUCCCACCACAUGAUGACGCCUGAAGACCCUUGGUUUUUUG [A27U C72A C82A U112C G122C]	-2.28
GACCAAUCUGCCCUCAGAGCUCGAGAUCAUCUUCGGAUGCAGACGAGGCAGGCUUCGGUGGCGCGAUAGCGUCAACGUCCUCAACCUCCAAUGCAUCCCACCAUAUGAUGAUGCCUGAAGAGCCUUGGUUUUUUG [A27U G44C C72U C104U]	-4.18
GACCAAUCUGCCCUCAGAGCUCGAGAUCAUCUUCGGAUGCAGAUGAGGCAGGCUUCGGUGGCGCGAUAGCGCCAACGUCCUCAACCUCCAAUGCAUCCCACCACAUGAUGAUGCCUGAAGAGCCUUGGUUUUUUG [A27U G44U]	-3.87
GACCAAUCUGCCCUCAGAGCUCGAGAUCAUCUUCGGAUGCAGAGGAGGCAGGCUUCGGUGGCGCGAUAGCGACAACGUCCUCAACCUCCAAUGCAACCCACCACAUGAUGAUGCCUGAAGAGCCUUGGUUUUUUG [A27U C72A U96A]	-4.21
GACCAAUCUGCCCUCAGAGCUCGAGAUCAUCUUCGGAUGCAGAGGAUGCAGGCUUCGGUGGCGCGAUAGCGCCAACGUCCUCAACCUCCAAUGCAUCCCACCACAUGAUGAUGCCUGAAGAGCGUUGGUUUUUUG [A27U G47U C124G]	-1.62
GACCAAUCUGCCCUCAGAGCUCGAGAUCAUCUUCGCAUGCAGAGGAGGCAGGCUUCGGUGGCGCGAUAGCGCCAACGUCCUCAACCUCCAAUGCAUCCCACCACAUGAUGAUGCCUGAAGAGCCUUGGUUUUUUU [A27U G36C G135U]	-5.51
GACCAAUCUGCCCUCAGAGCUCGAGAUCAUCUUCGGAUGCAGAGGAGGCAGGCUUCGGUGGCGCGAUAGCGCCAACGUCAUCAACCUCCAAUGCAUCCCACCACAUGAUGAUGCCUGAAGAGCCUUGGUUUUUUG [A27U C80A]	-5.56
GACCAAUCUGCCCUCAGAGCUCGAGAUCAUCUUCGGAUGCAGAGGAGGCAGGCUUCGGUGGCGCGAUAGCGCCAACGUCUUCAACCUCCAAUGCAUCCCACCACAUGAUGAUGCCUGAAGAGCCUUGGUUUUUUG [A27U C80U]	-3.34
